Tests used:
[1] = target: PD-1 (Homo sapiens (Human)) (UniProt Q15116); experiment: flow cytometry, Jurkat/PD-1 cells
[2] = target: PD-1 (Homo sapiens (Human)) (UniProt Q15116); experiment: flow cytometry, Jurkat/PD-1 cells; vs wildtype PD-L2 IgV-Fc

Chain of PD-1 (Homo sapiens (Human)) (Q15116 21-288 limits assumed): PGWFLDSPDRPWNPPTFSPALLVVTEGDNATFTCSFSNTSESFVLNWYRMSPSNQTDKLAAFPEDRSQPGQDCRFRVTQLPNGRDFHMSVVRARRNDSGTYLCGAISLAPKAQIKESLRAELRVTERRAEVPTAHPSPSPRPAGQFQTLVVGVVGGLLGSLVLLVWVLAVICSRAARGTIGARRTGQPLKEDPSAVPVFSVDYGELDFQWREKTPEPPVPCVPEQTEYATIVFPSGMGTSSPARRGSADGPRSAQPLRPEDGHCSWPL

| MFI at 50 nM [1] | Fold increase over wildtype PD-L2 IgV-Fc [2] [fold] | Binder |
| --- | --- | --- |
| 1410 | 0.14 | variant PD-L2 IgV-Fc N24D (Fc fusion, not shown: a dimerising Fc or GST; small tags and cut ends) LFTVTVPKELYIIEHGSNVTLECDFDTGSHVNLGAITASLQKVENDTSPHRERATLLEEQLPLGKASFHIPQVQVRDEGQYQCIIIYGVAWDYKYLTLK |
| 529 | 0.05 | variant PD-L2 IgV-Fc S67L, I85F (Fc fusion, not shown: a dimerising Fc or GST; small tags and cut ends) LFTVTVPKELYIIEHGSNVTLECNFDTGSHVNLGAITASLQKVENDTSPHRERATLLEEQLPLGKALFHIPQVQVRDEGQYQCIFIYGVAWDYKYLTLK |
| 2940 | 0.3 | variant PD-L2 IgV-Fc H15Q, R76G, I85F (SEQ ID NO 1500) (Fc fusion, not shown: a dimerising Fc or GST; small tags and cut ends) LFTVTVPKELYIIEQGSNVTLECNFDTGSHVNLGAITASLQKVENDTSPHRERATLLEEQLPLGKASFHIPQVQVGDEGQYQCIFIYGVAWDYKYLTLK |
| 10400 | 1.06 | variant PD-L2 IgV-Fc I13V, Q72H, R76G, I86T (Fc fusion, not shown: a dimerising Fc or GST; small tags and cut ends) LFTVTVPKELYIVEHGSNVTLECNFDTGSHVNLGAITASLQKVENDTSPHRERATLLEEQLPLGKASFHIPHVQVGDEGQYQCIITYGVAWDYKYLTLK |
| 25900 | 2.63 | variant PD-L2 IgV-Fc H15Q, N32D, S67L, V89D (Fc fusion, not shown: a dimerising Fc or GST; small tags and cut ends) LFTVTVPKELYIIEQGSNVTLECNFDTGSHVDLGAITASLQKVENDTSPHRERATLLEEQLPLGKALFHIPQVQVRDEGQYQCIIIYGDAWDYKYLTLK |
| 12700 | 1.29 | variant PD-L2 IgV-Fc E59G, Q82R (Fc fusion, not shown: a dimerising Fc or GST; small tags and cut ends) LFTVTVPKELYIIEHGSNVTLECNFDTGSHVNLGAITASLQKVENDTSPHRERATLLEGQLPLGKASFHIPQVQVRDEGQYRCIIIYGVAWDYKYLTLK |
| 40200 | 4.08 | variant PD-L2 IgV-Fc H15Q, S67L, Q72H, R76G, V89D (Fc fusion, not shown: a dimerising Fc or GST; small tags and cut ends) LFTVTVPKELYIIEQGSNVTLECNFDTGSHVNLGAITASLQKVENDTSPHRERATLLEEQLPLGKALFHIPHVQVGDEGQYQCIIIYGDAWDYKYLTLK |
| 73400 | 7.46 | variant PD-L2 IgV-Fc I13V, H15Q, T47A, Q72H, R76G (Fc fusion, not shown: a dimerising Fc or GST; small tags and cut ends) LFTVTVPKELYIVEQGSNVTLECNFDTGSHVNLGAITASLQKVENDASPHRERATLLEEQLPLGKASFHIPHVQVGDEGQYQCIIIYGVAWDYKYLTLK |
| 24000 | 2.43 | variant PD-L2 IgV-Fc I13V, H15Q, E44D, V89D (Fc fusion, not shown: a dimerising Fc or GST; small tags and cut ends) LFTVTVPKELYIVEQGSNVTLECNFDTGSHVNLGAITASLQKVDNDTSPHRERATLLEEQLPLGKASFHIPQVQVRDEGQYQCIIIYGDAWDYKYLTLK |
| 26100 | 2.65 | variant PD-L2 IgV-Fc S39I, V89D (Fc fusion, not shown: a dimerising Fc or GST; small tags and cut ends) LFTVTVPKELYIIEHGSNVTLECNFDTGSHVNLGAITAILQKVENDTSPHRERATLLEEQLPLGKASFHIPQVQVRDEGQYQCIIIYGDAWDYKYLTLK |
| 47200 | 4.8 | variant PD-L2 IgV-Fc H15Q, S67L, R76G (Fc fusion, not shown: a dimerising Fc or GST; small tags and cut ends) LFTVTVPKELYIIEQGSNVTLECNFDTGSHVNLGAITASLQKVENDTSPHRERATLLEEQLPLGKALFHIPQVQVGDEGQYQCIIIYGVAWDYKYLTLK |
| 21600 | 2.19 | variant PD-L2 IgV-Fc I13V, H15Q, S67L, I86T (Fc fusion, not shown: a dimerising Fc or GST; small tags and cut ends) LFTVTVPKELYIVEQGSNVTLECNFDTGSHVNLGAITASLQKVENDTSPHRERATLLEEQLPLGKALFHIPQVQVRDEGQYQCIITYGVAWDYKYLTLK |
| 13500 | 1.37 | variant PD-L2 IgV-Fc H15Q, K65R (Fc fusion, not shown: a dimerising Fc or GST; small tags and cut ends) LFTVTVPKELYIIEQGSNVTLECNFDTGSHVNLGAITASLQKVENDTSPHRERATLLEEQLPLGRASFHIPQVQVRDEGQYQCIIIYGVAWDYKYLTLK |
| 12600 | 1.28 | variant PD-L2 IgV-Fc H15Q, Q72H, V89D (Fc fusion, not shown: a dimerising Fc or GST; small tags and cut ends) LFTVTVPKELYIIEQGSNVTLECNFDTGSHVNLGAITASLQKVENDTSPHRERATLLEEQLPLGKASFHIPHVQVRDEGQYQCIIIYGDAWDYKYLTLK |
| 2930 | 0.3 | variant PD-L2 IgV-Fc E44D (Fc fusion, not shown: a dimerising Fc or GST; small tags and cut ends) LFTVTVPKELYIIEHGSNVTLECNFDTGSHVNLGAITASLQKVDNDTSPHRERATLLEEQLPLGKASFHIPQVQVRDEGQYQCIIIYGVAWDYKYLTLK |
| 16000 | 1.62 | variant PD-L2 IgV-Fc S67L, V89D (Fc fusion, not shown: a dimerising Fc or GST; small tags and cut ends) LFTVTVPKELYIIEHGSNVTLECNFDTGSHVNLGAITASLQKVENDTSPHRERATLLEEQLPLGKALFHIPQVQVRDEGQYQCIIIYGDAWDYKYLTLK |
| 6830 | 0.69 | variant PD-L2 IgV-Fc S67L, I86T (Fc fusion, not shown: a dimerising Fc or GST; small tags and cut ends) LFTVTVPKELYIIEHGSNVTLECNFDTGSHVNLGAITASLQKVENDTSPHRERATLLEEQLPLGKALFHIPQVQVRDEGQYQCIITYGVAWDYKYLTLK |
| 16000 | 1.63 | variant PD-L2 IgV-Fc H15Q (Fc fusion, not shown: a dimerising Fc or GST; small tags and cut ends) FTVTVPKELYIIEQGSNVTLECNFDTGSHVNLGAITASLQKVENDTSPHRERATLLEEQLPLGKASFHIPQVQVRDEGQYQCIIIYGVAWDYKYLTLK |

Continued, binder first:

| Binder | MFI at 50 nM [1] | Fold increase over wildtype PD-L2 IgV-Fc [2] [fold] |
| --- | --- | --- |
| variant PD-L2 IgV-Fc H15Q, E44D, R76G, I85F (Fc fusion, not shown: a dimerising Fc or GST; small tags and cut ends) LFTVTVPKELYIIEQGSNVTLECNFDTGSHVNLGAITASLQKVDNDTSPHRERATLLEEQLPLGKASFHIPQVQVGDEGQYQCIFIYGVAWDYKYLTLK | 2880 | 0.29 |
| variant PD-L2 IgV-Fc H15Q, T47A, Q72H, R76G (Fc fusion, not shown: a dimerising Fc or GST; small tags and cut ends) LFTVTVPKELYIIEQGSNVTLECNFDTGSHVNLGAITASLQKVENDASPHRERATLLEEQLPLGKASFHIPHVQVGDEGQYQCIIIYGVAWDYKYLTLK | 16500 | 1.68 |
| variant PD-L2 IgV-Fc H15Q, S67L, R76G, I85F (Fc fusion, not shown: a dimerising Fc or GST; small tags and cut ends) LFTVTVPKELYIIEQGSNVTLECNFDTGSHVNLGAITASLQKVENDTSPHRERATLLEEQLPLGKALFHIPQVQVGDEGQYQCIFIYGVAWDYKYLTLK | 2870 | 0.29 |
| variant PD-L2 IgV-Fc I13V, S39I, E44D, Q82R, V89D (Fc fusion, not shown: a dimerising Fc or GST; small tags and cut ends) LFTVTVPKELYIVEHGSNVTLECNFDTGSHVNLGAITAILQKVDNDTSPHRERATLLEEQLPLGKASFHIPQVQVRDEGQYRCIIIYGDAWDYKYLTLK | 71400 | 7.26 |
| variant PD-L2 IgV-Fc H15Q, T47A, Q82R (Fc fusion, not shown: a dimerising Fc or GST; small tags and cut ends) LFTVTVPKELYIIEQGSNVTLECNFDTGSHVNLGAITASLQKVENDASPHRERATLLEEQLPLGKASFHIPQVQVRDEGQYRCIIIYGVAWDYKYLTLK | 65200 | 6.62 |
| variant PD-L2 IgV-Fc N32D, S67L, V89D (Fc fusion, not shown: a dimerising Fc or GST; small tags and cut ends) LFTVTVPKELYIIEHGSNVTLECNFDTGSHVDLGAITASLQKVENDTSPHRERATLLEEQLPLGKALFHIPQVQVRDEGQYQCIIIYGDAWDYKYLTLK | 31800 | 3.23 |
| variant PD-L2 IgV-Fc I13V, H15Q, R76G, I85F (Fc fusion, not shown: a dimerising Fc or GST; small tags and cut ends) LFTVTVPKELYIVEQGSNVTLECNFDTGSHVNLGAITASLQKVENDTSPHRERATLLEEQLPLGKASFHIPQVQVGDEGQYQCIFIYGVAWDYKYLTLK | 4740 | 0.48 |
| variant PD-L2 IgV-Fc Q82R, V89D (Fc fusion, not shown: a dimerising Fc or GST; small tags and cut ends) LFTVTVPKELYIIEHGSNVTLECNFDTGSHVNLGAITASLQKVENDTSPHRERATLLEEQLPLGKASFHIPQVQVRDEGQYRCIIIYGDAWDYKYLTLK | 45000 | 4.57 |
| variant PD-L2 IgV-Fc I13V, E44D, Q82R, V89D (Fc fusion, not shown: a dimerising Fc or GST; small tags and cut ends) LFTVTVPKELYIVEHGSNVTLECNFDTGSHVNLGAITASLQKVDNDTSPHRERATLLEEQLPLGKASFHIPQVQVRDEGQYRCIIIYGDAWDYKYLTLK | 45200 | 4.59 |
| variant PD-L2 IgV-Fc H15Q, S39I, S67L, V89D (Fc fusion, not shown: a dimerising Fc or GST; small tags and cut ends) LFTVTVPKELYIIEQGSNVTLECNFDTGSHVNLGAITAILQKVENDTSPHRERATLLEEQLPLGKALFHIPQVQVRDEGQYQCIIIYGDAWDYKYLTLK | 45500 | 4.62 |
| variant PD-L2 IgV-Fc V89D (Fc fusion, not shown: a dimerising Fc or GST; small tags and cut ends) LFTVTVPKELYIIEHGSNVTLECNFDTGSHVNLGAITASLQKVENDTSPHRERATLLEEQLPLGKASFHIPQVQVRDEGQYQCIIIYGDAWDYKYLTLK | 3360 | 0.34 |
| variant PD-L2 IgV-Fc H15Q, T47A, Q72H, R76G, I86T (Fc fusion, not shown: a dimerising Fc or GST; small tags and cut ends) LFTVTVPKELYIIEQGSNVTLECNFDTGSHVNLGAITASLQKVENDASPHRERATLLEEQLPLGKASFHIPHVQVGDEGQYQCIITYGVAWDYKYLTLK | 32100 | 3.26 |
| variant PD-L2 IgV-Fc I13V, H15Q, S39I, E44D, S67L (Fc fusion, not shown: a dimerising Fc or GST; small tags and cut ends) FTVTVPKELYIVEQGSNVTLECNFDTGSHVNLGAITAILQKVDNDTSPHRERATLLEEQLPLGKALFHIPQVQVRDEGQYQCIIIYGVAWDYKYLTLK | 63500 | 6.45 |
| variant PD-L2 IgV-Fc G28V, Q72H, R76G, I86T (Fc fusion, not shown: a dimerising Fc or GST; small tags and cut ends) FTVTVPKELYIIEHGSNVTLECNFDTVSHVNLGAITASLQKVENDTSPHRERATLLEEQLPLGKASFHIPHVQVGDEGQYQCIITYGVAWDYKYLTLK | 5560 | 0.57 |
| variant PD-L2 IgV-Fc H15Q, Q72H, Q74R, R76G, I86T (Fc fusion, not shown: a dimerising Fc or GST; small tags and cut ends) FTVTVPKELYIIEQGSNVTLECNFDTGSHVNLGAITASLQKVENDTSPHRERATLLEEQLPLGKASFHIPHVRVGDEGQYQCIITYGVAWDYKYLTLK | 4050 | 0.41 |
